# From publication PMC4525147
# Where no end group is shown, it is not given here.
# Tests used:
# [1] = biological target: gp41, the Xenopus laevis ZP3, of the vitelline envelope (Xenopus laevis)
Binder,Kd of the concentration dependence of the inhibition of in vitro fertilization [1] [nM],"in vitro fertilization rate after pretreatment of the VE with the peptide at 4 μM, normalised to control [1]","in vitro fertilization rate after preincubation of the VE with gpp2 (concentration series, highest at 4 μM), normalised to control (dicalcin (wild type))"
"SFSCNQKNK (also: biotin) [dcp11, dicalcin-derived peptide]",33,25 % of control,
"RYEIINQNGCLVDGKLDDSSSAF (also: biotin) [gpp2, gp41-derived peptide]",,,132 % of control
"AALCKL (also: biotin) [dcp15, dicalcin-derived peptide]",46,32 % of control,
